*1 amine or outer side, *2 acyl side, *3 side chain or, on linkers, in order; H or OH if unused. Primed or numbered codes have the meaning given here. Side-chain parts run from the residue outwards. [ ]: non-standard residue; d: D form. The star is where a group is joined. PEG28′ = polyethylene glycol spacer with 28 ethoxy units (aminoethoxy-ethoxy chain); PEG24′ = polyethylene glycol spacer of 24 ethoxy units; PEG12 = NCCOCCOCCOCCOCCOCCOCCOCCOCCOCCOCCOCCOCCC(=O)O; γGlu = O=C(O)[C@H](CCC(=O)[*:2])N[*:1]; 1Nal = N[C@@H](Cc1cccc2ccccc12)C(=O)O; Stearoyl = CCCCCCCCCCCCCCCCCC(=O)*; Palmitoyl = CCCCCCCCCCCCCCCC(=O)*; αMeK = C[C@](N)(CCCCN)C(=O)O; Nle = CCCC[C@H](N)C(=O)O; PEG2′ = PEG2 spacer unit; Aib = CC(C)(N)C(=O)O
T1: RXFP1 receptor (UniProt Q9HBX9 1-757, limits assumed)
T1 sequence (looked up): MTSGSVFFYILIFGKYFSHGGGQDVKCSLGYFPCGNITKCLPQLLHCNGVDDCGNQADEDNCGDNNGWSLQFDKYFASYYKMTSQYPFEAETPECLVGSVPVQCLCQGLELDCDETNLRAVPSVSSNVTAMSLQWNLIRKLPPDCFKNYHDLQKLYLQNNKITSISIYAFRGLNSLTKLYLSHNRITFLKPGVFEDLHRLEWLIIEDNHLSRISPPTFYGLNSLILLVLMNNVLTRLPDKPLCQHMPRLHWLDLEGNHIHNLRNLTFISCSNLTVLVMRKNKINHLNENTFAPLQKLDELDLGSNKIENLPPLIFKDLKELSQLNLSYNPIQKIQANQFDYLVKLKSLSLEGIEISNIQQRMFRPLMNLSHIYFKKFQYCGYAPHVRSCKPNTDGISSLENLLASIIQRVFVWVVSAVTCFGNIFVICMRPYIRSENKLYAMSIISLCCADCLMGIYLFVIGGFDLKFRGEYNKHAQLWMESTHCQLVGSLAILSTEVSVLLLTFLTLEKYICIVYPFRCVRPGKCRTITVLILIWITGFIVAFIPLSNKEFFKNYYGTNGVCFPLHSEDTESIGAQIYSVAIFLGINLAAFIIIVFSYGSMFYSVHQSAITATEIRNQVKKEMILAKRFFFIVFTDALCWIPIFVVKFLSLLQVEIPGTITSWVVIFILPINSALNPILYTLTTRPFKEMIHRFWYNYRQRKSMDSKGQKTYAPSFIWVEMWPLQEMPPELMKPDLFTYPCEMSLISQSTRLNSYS


Tests used:
RXFP1 receptor [1] = target: T1, RXFP1 receptor; assay: cell-based or functional assay
RXFP1 receptor [2] = target: T1, RXFP1 receptor; assay: cell-based or functional assay; remark: listed apart in the source

Row | EC50 (nM), cAMP assay in OVCAR 5 cells (RXFP1 receptor [1]) | Emax, cAMP assay in OVCAR 5 cells (RXFP1 receptor [1]) | EC50 (nM), OVCAR 5 cells (cAMP) (RXFP1 receptor [2]) | EMax, OVCAR 5 cells (cAMP) (RXFP1 receptor [2]) | Binder
1 | 206 nM | 84% |  |  | Ac-VIKLSGRELVRAQIAISGMSTWSKKKK-NH2 [KKKK(AcB7-29 C11.23S)]
2 |  |  | 0.09 nM | 87% | Ac-LEGREKVRAK(Ac)I[Aib][Aib]EG[Nle]STWX[Aib]RKK(Ac)[PEG12]K([γGlu-γGlu-γGlu-Stearoyl])-NH2 (not fully specified (some residues); printed as Ac-L-E-G-R-E-K-V-R-A-K(Ac)-I-Aib-Aib-E-G-Nle-S-T-W-Mse-Aib-R-K-K(Ac)-PEG12-K(gE-gE-gE-Stea)-NH2) [peptide of SEQ ID NO: 41]
3 |  |  | 16.1 nM | 75% | Ac-LEGREKVRAK(Ac)I[Aib][Aib]EGQSTYS[Aib]RKK(Ac)K([PEG2′-PEG2′-PEG2′-γGlu-γGlu-γGlu-Palmitoyl])-NH2 [peptide of SEQ ID NO: 44]
4 |  |  | 0.61 nM | 79% | Ac-LEGREKVRAK(Ac)I[Aib][Aib]EG[Nle]STYS[Aib]RKK(Ac)[PEG12]K([γGlu-γGlu-γGlu-Stearoyl])-NH2 (SMILES CCCCCCCCCCCCCCCCCC(=O)N[C@@H](CCC(=O)N[C@@H](CCC(=O)N[C@@H](CCC(=O)NCCCC[C@H](NC(=O)CCOCCOCCOCCOCCOCCOCCOCCOCCOCCOCCOCCOCCNC(=O)[C@H](CCCCNC(C)=O)NC(=O)[C@H](CCCCN)NC(=O)[C@H](CCCNC(=N)N)NC(=O)C(C)(C)NC(=O)[C@H](CO)NC(=O)[C@H](Cc1ccc(O)cc1)NC(=O)[C@@H](NC(=O)[C@H](CO)NC(=O)[C@H](CCCC)NC(=O)CNC(=O)[C@H](CCC(=O)O)NC(=O)C(C)(C)NC(=O)C(C)(C)NC(=O)[C@@H](NC(=O)[C@H](CCCCNC(C)=O)NC(=O)[C@H](C)NC(=O)[C@H](CCCNC(=N)N)NC(=O)[C@@H](NC(=O)[C@H](CCCCN)NC(=O)[C@H](CCC(=O)O)NC(=O)[C@H](CCCNC(=N)N)NC(=O)CNC(=O)[C@H](CCC(=O)O)NC(=O)[C@H](CC(C)C)NC(C)=O)C(C)C)[C@@H](C)CC)[C@@H](C)O)C(N)=O)C(=O)O)C(=O)O)C(=O)O) [peptide of SEQ ID NO: 46]
5 |  |  | 0.25 nM | 99% | Ac-LEGREKVRAK(Ac)I[Aib][Aib]EG[Nle]STWS[Aib]RKK[PEG28′]K([γGlu-γGlu-γGlu-Stearoyl])-NH2 [peptide of SEQ ID NO: 48]
6 | 929 nM | 70% |  |  | Ac-VIKLSGRELVRAQIAISGMSTWSKRSL-NH2 [AcB7-33 C11.23S]
7 | 1640 nM | 90% |  |  | H-VIKLSGRELVRAQIAISGMSTWSKRSL-NH2 [B7-33 C11.23S]
8 |  |  | 0.02 nM | 90% | Ac-LEGREKVRAK(Ac)I[Aib][Aib]EG[Nle]STWXXRKK(Ac)[PEG12]K([γGlu-γGlu-γGlu-γGlu-Stearoyl])-NH2 (not fully specified (some residues); printed as Ac-L-E-G-R-E-K-V-R-A-K(Ac)-I-Aib-Aib-E-G-Nle-S-T-W-Mse-Mly-R-K-K(Ac)-PEG12-K(gE-gE-gE-gE-Stea)-NH2) [peptide of SEQ ID NO: 40]
9 |  |  | 0.03 nM | 91% | Ac-LEGREKVRAK(Ac)I[Aib][Aib]EG[Nle]STWXKRKK(Ac)[PEG12]K([γGlu-γGlu-γGlu-γGlu-Stearoyl])-NH2 (not fully specified (some residues); printed as Ac-L-E-G-R-E-K-V-R-A-K(Ac)-I-Aib-Aib-E-G-Nle-S-T-W-Mse-K-R-K-K(Ac)-PEG12-K(gE-gE-gE-gE-Stea)-NH2) [peptide of SEQ ID NO: 39]
10 |  |  | 2.56 nM | 100% | Ac-LEGREKVRAQI[Aib][Aib]EGMSTWS[Aib]RK[PEG24′]K([γGlu-γGlu-γGlu-Palmitoyl])-NH2 [peptide of SEQ ID NO: 47]
11 |  |  | 1.65 nM | 106% | Ac-LEGREKVRAK(Ac)I[Aib][Aib]EG[Nle]STWS[Aib]RKK(Ac)[PEG28′]K([γGlu-γGlu-γGlu-Stearoyl])-NH2 [peptide of SEQ ID NO: 49]
12 |  |  | 0.14 nM | 106% | Ac-LEGREKVRAK(Ac)I[Aib][Aib]EG[Nle]STWS[αMeK]RKK(Ac)[PEG12]K([γGlu-γGlu-γGlu-γGlu-Palmitoyl])-NH2 [peptide of SEQ ID NO: 43]
13 |  |  | 0.01 nM | 91% | Ac-LEGREKVRAK(Ac)I[Aib][Aib]EG[Nle]STWS[αMeK]RKK(Ac)[PEG12]K([γGlu-γGlu-γGlu-γGlu-Stearoyl])-NH2 (SMILES CCCCCCCCCCCCCCCCCC(=O)N[C@@H](CCC(=O)N[C@@H](CCC(=O)N[C@@H](CCC(=O)N[C@@H](CCC(=O)NCCCC[C@H](NC(=O)CCOCCOCCOCCOCCOCCOCCOCCOCCOCCOCCOCCOCCNC(=O)[C@H](CCCCNC(C)=O)NC(=O)[C@H](CCCCN)NC(=O)[C@H](CCCNC(=N)N)NC(=O)[C@](C)(CCCCN)NC(=O)[C@H](CO)NC(=O)[C@H](Cc1c[nH]c2ccccc12)NC(=O)[C@@H](NC(=O)[C@H](CO)NC(=O)[C@H](CCCC)NC(=O)CNC(=O)[C@H](CCC(=O)O)NC(=O)C(C)(C)NC(=O)C(C)(C)NC(=O)[C@@H](NC(=O)[C@H](CCCCNC(C)=O)NC(=O)[C@H](C)NC(=O)[C@H](CCCNC(=N)N)NC(=O)[C@@H](NC(=O)[C@H](CCCCN)NC(=O)[C@H](CCC(=O)O)NC(=O)[C@H](CCCNC(=N)N)NC(=O)CNC(=O)[C@H](CCC(=O)O)NC(=O)[C@H](CC(C)C)NC(C)=O)C(C)C)[C@@H](C)CC)[C@@H](C)O)C(N)=O)C(=O)O)C(=O)O)C(=O)O)C(=O)O) [peptide of SEQ ID NO: 42]
14 |  |  | 0.81 nM | 79% | Ac-LEGREKVRAK(Ac)I[Aib][Aib]EG[Nle]ST[1Nal]S[Aib]RK[PEG12]K([γGlu-γGlu-γGlu-Stearoyl])-NH2 (SMILES CCCCCCCCCCCCCCCCCC(=O)N[C@@H](CCC(=O)N[C@@H](CCC(=O)N[C@@H](CCC(=O)NCCCC[C@H](NC(=O)CCOCCOCCOCCOCCOCCOCCOCCOCCOCCOCCOCCOCCNC(=O)[C@H](CCCCN)NC(=O)[C@H](CCCNC(=N)N)NC(=O)C(C)(C)NC(=O)[C@H](CO)NC(=O)[C@H](Cc1cccc2ccccc12)NC(=O)[C@@H](NC(=O)[C@H](CO)NC(=O)[C@H](CCCC)NC(=O)CNC(=O)[C@H](CCC(=O)O)NC(=O)C(C)(C)NC(=O)C(C)(C)NC(=O)[C@@H](NC(=O)[C@H](CCCCNC(C)=O)NC(=O)[C@H](C)NC(=O)[C@H](CCCNC(=N)N)NC(=O)[C@@H](NC(=O)[C@H](CCCCN)NC(=O)[C@H](CCC(=O)O)NC(=O)[C@H](CCCNC(=N)N)NC(=O)CNC(=O)[C@H](CCC(=O)O)NC(=O)[C@H](CC(C)C)NC(C)=O)C(C)C)[C@@H](C)CC)[C@@H](C)O)C(N)=O)C(=O)O)C(=O)O)C(=O)O) [peptide of SEQ ID NO: 45]

From patent publication US20190233493A1 (Sanofi, published 2019)
